In publication PMC7080818:

Experiments:
[1] = target: 3xFLAG-KSHV-ORF64, N-terminal catalytic domain of the KSHV large tegument protein (Kaposi Sarcoma herpesvirus (KSHV)) (UniProt Q2HR64)
[2] = target: 3xFLAG-HCMV-UL48, N-terminal catalytic domain of the HCMV large tegument protein (human cytomegalovirus (HCMV)) (UniProt P16785)
[3] = target: 3xFLAG-BPLF1 (amino acid residues 1-235), N-terminal catalytic domain of the EBV large tegument protein (Epstein-Barr virus (EBV)) (UniProt P03186)
Sequence of UniProt P03186 (P03186 1-235): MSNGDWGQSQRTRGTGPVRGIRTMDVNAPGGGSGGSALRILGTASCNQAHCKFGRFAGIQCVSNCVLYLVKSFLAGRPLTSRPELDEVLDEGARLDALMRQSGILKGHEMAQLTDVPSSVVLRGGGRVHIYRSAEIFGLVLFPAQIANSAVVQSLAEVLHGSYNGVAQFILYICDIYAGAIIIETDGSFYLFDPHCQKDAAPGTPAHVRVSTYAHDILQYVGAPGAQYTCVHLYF

Sequence of UniProt P16785 (P16785 1-300): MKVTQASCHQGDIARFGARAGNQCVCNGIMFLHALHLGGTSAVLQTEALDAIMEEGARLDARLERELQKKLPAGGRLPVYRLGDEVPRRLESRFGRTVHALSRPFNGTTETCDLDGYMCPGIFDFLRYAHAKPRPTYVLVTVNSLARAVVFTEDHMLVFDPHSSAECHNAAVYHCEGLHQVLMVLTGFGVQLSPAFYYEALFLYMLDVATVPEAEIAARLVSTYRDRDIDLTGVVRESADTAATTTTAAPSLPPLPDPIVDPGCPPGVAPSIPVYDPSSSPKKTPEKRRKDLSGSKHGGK
Sequence of UniProt Q2HR64 (Q2HR64 1-300): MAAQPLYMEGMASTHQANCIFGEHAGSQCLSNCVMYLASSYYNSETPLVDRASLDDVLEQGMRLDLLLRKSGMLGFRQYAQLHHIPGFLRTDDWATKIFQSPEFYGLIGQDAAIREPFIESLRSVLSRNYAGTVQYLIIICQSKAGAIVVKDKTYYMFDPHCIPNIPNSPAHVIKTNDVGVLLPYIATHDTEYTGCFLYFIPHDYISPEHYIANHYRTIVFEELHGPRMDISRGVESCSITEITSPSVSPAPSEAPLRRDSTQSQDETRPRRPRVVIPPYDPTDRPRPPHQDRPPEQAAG

Substance: 14-3-3 molecular scaffold (endogenous, detected with a pan 14-3-3 antibody) (from UniProt P63104 1-245) (natural protein)
- mono-ubiquitination of co-transfected HA-TRIM25 (western blot, densitometry), percent mono-ubiquitinated TRIM25 [1]: > 70%
- mono-ubiquitination of co-transfected HA-TRIM25 (western blot, densitometry), percent mono-ubiquitinated TRIM25 [2]: > 70%
- inhibition of IRF3 nuclear translocation in RIG-I-2CARD positive HeLa cells [3]: > 50%
